{"source": "patent US11732029B2", "about": "“Methods and compositions for the treatment of wounds” (The University of Chicago, priority 2017, dated 2023)", "key": {"[1]": {"system": "full-thickness back-skin wounds in db/db diabetic mice", "test": "Retention of VEGF-A165 at the wound site", "assay_type": "in vivo", "settings": "db/db mouse; fibrin matrix with 200 ng VEGF-A165/wound; 3 days after treatment; vs without peptide", "procedure": "Retention assays were performed as previously reported^1. Briefly, C57BLKS/J-m/Lepr db (db/db) mice ages 10 to 11 wks were used. Their backs were shaved and four full-thickness punch-biopsy wounds (6 mm in diameter) were created in each mouse. Directly after, fibrin matrices [80 μL total, fibrinogen (10 mg/mL), 2 U/mL human thrombin, 4 U/mL factor XIII, 5 mM calcium chloride, 2 μM α2PI1-8-α33043-3067, 200 ng of recombinant human VEGF-A165] were polymerized on the wounds. To avoid drying of the matrices, the wounds were covered with non-adhering dressing (Adaptic, Johnson & Johnson), and then with adhesive film dressing (Hydrofilm, Hartmann). After 3 or 6 days, mice were sacrificed. The wounds were punched again, in order to recover the fibrinous matrices. Moreover, the tissue surrounding the wounds (2 mm beyond the wound margin) was removed. The tissue was transferred in 0.9 mL of tissue T-PER Tissue Protein Extraction Reagent (Thermo Scientific) containing 1 mg/mL of collagenase IV (Sigma-Aldrich), and homogenized with a tissue homogenizer. […] Recombinant human VEGF-A165 remaining in the fibrinous matrix and in the tissue surrounding the wound were quantified by ELISA (DuoSet, R&D Systems), using 200 ng of recombinant human VEGF-A165 as 100%."}, "VEGF-A165 [2]": {"target": "T1, VEGF-A165 (Homo sapiens, UniProt P15692)", "T1 construct": "All growth factors (GFs) and chemokines were purchased in their mature forms; purchased PeproTech; host or cells: Escherichia coli", "T1 sequence (P15692 27-191 isoform P15692-4 limits assumed)": "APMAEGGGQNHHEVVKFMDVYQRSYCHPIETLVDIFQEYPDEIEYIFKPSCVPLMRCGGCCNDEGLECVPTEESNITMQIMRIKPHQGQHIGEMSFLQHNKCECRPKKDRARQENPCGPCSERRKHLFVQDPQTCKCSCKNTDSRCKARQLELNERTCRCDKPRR", "test": "Surface plasmon resonance, laminin against GF", "settings": "SPR; laminin protein immobilized on chip, GF flowed; Langmuir binding kinetics", "procedure": "(§1) SPR analysis was performed as described previously^2. In brief, measurements were made with a Biacore 3000 SPR system (GE Healthcare). Laminin-521 or laminin α32928-3150 was immobilized via amine coupling on a C1 chip (GE Healthcare) for ˜2000 or ˜1000 resonance units (RU), respectively, according to the manufacturer's instructions. VEGF-A165, PDGF-BB, or PlGF-2 was flowed at increasing concentrations in the running buffer at 20 μL/min. The sensor chip was regenerated with 50 mM NaOH for every cycle. Specific bindings of GFs to laminin were calculated by comparison to a non-functionalized channel used as a reference. Experimental results were fitted with Langmuir binding kinetics using BIAevaluation software (GE Healthcare)."}, "PDGF-BB [3]": {"target": "T2, PDGF-BB (Homo sapiens, UniProt P01127)", "T2 construct": "All growth factors (GFs) and chemokines were purchased in their mature forms; purchased PeproTech; host or cells: Escherichia coli", "T2 sequence (P01127 82-190 limits assumed)": "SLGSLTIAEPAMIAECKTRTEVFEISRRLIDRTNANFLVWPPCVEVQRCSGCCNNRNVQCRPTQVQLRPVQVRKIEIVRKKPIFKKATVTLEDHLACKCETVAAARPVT", "test": "Surface plasmon resonance, laminin against GF", "settings": "SPR; laminin protein immobilized on chip, GF flowed; Langmuir binding kinetics", "procedure": "as §1"}, "PlGF-2 [4]": {"target": "T3, PlGF-2 (Homo sapiens, UniProt P49763)", "T3 sequence (P49763 19-170 isoform P49763-3 limits assumed)": "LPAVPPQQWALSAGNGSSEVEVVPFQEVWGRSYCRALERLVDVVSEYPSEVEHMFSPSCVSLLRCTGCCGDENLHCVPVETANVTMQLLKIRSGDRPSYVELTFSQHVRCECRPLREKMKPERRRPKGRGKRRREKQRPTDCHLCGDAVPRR", "test": "Surface plasmon resonance, laminin against GF", "design": "All GFs and chemokines were purchased in their mature forms; purchased PeproTech; host or cells: Escherichia coli", "settings": "SPR; laminin protein immobilized on chip, GF flowed; Langmuir binding kinetics", "procedure": "as §1"}, "FGF-2": {"target": "FGF-2 (Homo sapiens, UniProt P09038)", "sequence (P09038 143-288)": "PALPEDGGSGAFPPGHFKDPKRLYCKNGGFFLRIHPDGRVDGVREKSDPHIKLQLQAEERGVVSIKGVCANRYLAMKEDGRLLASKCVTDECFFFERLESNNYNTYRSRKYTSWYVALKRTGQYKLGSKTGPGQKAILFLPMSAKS", "test": "Recombinant GF binding to the vWF recombinant protein and A1 HBD peptide (ELISA)", "design": "All growth factors (GFs) and chemokines were purchased in their mature forms; purchased PeproTech; host or cells: Escherichia coli", "settings": "plate coated with vWF protein, A1 domain or HBD peptide, 1 μg/mL GF", "procedure": "(§2) ELISA tests were performed as described above. In brief, ELISA plates were coated with 1 μg/mL of FL-vWF (WT or R1341Q), 1 μg/mL of vWF A1 recombinant protein (U-Protein Express) or 1 μg/mL of vWF A1 HBD peptide (sequence […], (SEQ ID NO:50) chemically synthesized by Genscript) at 37° C. overnight. After blocking with 2% BSA solution containing PBS-T, 1 μg/mL of the recombinant human proteins VEGF-A121, VEGF-A165, PlGF-1, PlGF-2, PDGF-BB, FGF-2, CXCL-12α and CXCL-12γ were added. 1 μg/mL of BSA served as non-binding protein control. Bound GF or chemokine was detected with biotinylated antibodies for human VEGF-A, PlGF, PDGF-BB, FGF-2, or CXCL-12 (R & D Systems). The antibodies were detected by streptavidin-HRP (R & D Systems). Color development and the absorbance measurement were done as described above."}, "PlGF-2 [5]": {"target": "T3, PlGF-2", "test": "Recombinant GF binding to the vWF recombinant protein and A1 HBD peptide (ELISA)", "design": "All growth factors (GFs) and chemokines were purchased in their mature forms; purchased PeproTech; host or cells: Escherichia coli", "settings": "plate coated with vWF protein, A1 domain or HBD peptide, 1 μg/mL GF", "procedure": "as §2"}, "CXCL-12γ": {"target": "T4, CXCL-12γ (Homo sapiens, UniProt P48061)", "T4 construct": "All GFs and chemokines were purchased in their mature forms; purchased R & D Systems; host or cells: Escherichia coli", "T4 sequence (P48061 22-119 isoform P48061-3)": "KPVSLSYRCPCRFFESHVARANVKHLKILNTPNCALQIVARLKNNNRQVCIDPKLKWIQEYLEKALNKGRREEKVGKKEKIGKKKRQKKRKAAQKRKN", "test": "Recombinant GF binding to the vWF recombinant protein and A1 HBD peptide (ELISA)", "settings": "plate coated with vWF protein, A1 domain or HBD peptide, 1 μg/mL GF", "procedure": "as §2"}, "VEGF-A165 [6]": {"target": "T1, VEGF-A165", "test": "Recombinant GF binding to the vWF recombinant protein and A1 HBD peptide (ELISA)", "settings": "plate coated with vWF protein, A1 domain or HBD peptide, 1 μg/mL GF", "procedure": "as §2"}, "PDGF-BB [7]": {"target": "T2, PDGF-BB", "test": "Recombinant GF binding to the vWF recombinant protein and A1 HBD peptide (ELISA)", "settings": "plate coated with vWF protein, A1 domain or HBD peptide, 1 μg/mL GF", "procedure": "as §2"}, "VEGF-A165 [8]": {"target": "T1, VEGF-A165", "test": "vWF binding to recombinant VEGF-A isoforms (ELISA)", "settings": "plate coated with 50 nM vWF domains, 1 μg/mL VEGF-A, vs BSA", "procedure": "(§3) ELISA was performed as previously reported1. In brief, ELISA plates (med binding: Greiner Bio-One) were coated with 50 nM BSA (GE Healthcare), pro-peptide containing recombinant vWF (Sino Biological), plasma-derived vWF (EMD Millipore), recombinant human vWF A1 domain (U-Protein Express), recombinant human vWF A2 domain (R & D systems), recombinant human vWF A3 domain (U-Protein Express), vWF A1 HBD peptide or scrambled/mutated HBD peptide (all peptides were synthesized by Genscript). After blocking with 2% BSA solution containing PBS-T, 1 μg/mL of recombinant human VEGF-A121 (PeproTech), recombinant human VEGF-A145 (R & D Systems), or recombinant human VEGF-A165 (PeproTech) was added. Bound VEGF-A was detected with 1 μg/mL of mouse anti-human VEGF-A antibody (clone: 26503, R & D systems). After 60 min of incubation, horseradish peroxidase (HRP) conjugated goat anti-mouse antibody (1:2000 dilution, Dako) was added and incubated for another 60 min. Color development and the absorbance measurement were done as described above."}, "VEGF-A145": {"target": "T5, VEGF-A145 (Homo sapiens, UniProt P15692)", "T5 construct": "All GFs and chemokines were purchased in their mature forms; purchased R & D Systems", "T5 sequence (P15692 27-171 isoform P15692-6 limits assumed)": "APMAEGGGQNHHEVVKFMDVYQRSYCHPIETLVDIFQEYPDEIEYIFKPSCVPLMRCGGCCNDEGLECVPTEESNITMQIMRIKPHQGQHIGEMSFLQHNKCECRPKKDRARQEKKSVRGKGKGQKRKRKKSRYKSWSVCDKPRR", "test": "vWF binding to recombinant VEGF-A isoforms (ELISA)", "settings": "plate coated with 50 nM vWF domains, 1 μg/mL VEGF-A, vs BSA", "procedure": "as §3"}, "CXCL-12α": {"target": "T6, CXCL-12α (Homo sapiens, UniProt P48061)", "T6 construct": "All GFs and chemokines were purchased in their mature forms; purchased PeproTech; host or cells: Escherichia coli", "T6 sequence (P48061 22-89 limits assumed)": "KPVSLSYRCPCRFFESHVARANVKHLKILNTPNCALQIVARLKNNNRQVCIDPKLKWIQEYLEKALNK", "test": "Laminin binding to recombinant GFs (ELISA)", "settings": "ELISA A450 nm; signals greater than 0.1 = binding", "procedure": "(§4) ELISA tests were performed as previously reported. In brief, ELISA plates (med-binding, Greiner Bio-One) were coated with 50 nM GFs at 37° C. for more than 2 hrs. After blocking with 2% BSA solution containing PBS and 0.05% Tween 20 (PBS-T), 10 nM recombinant human laminin isoforms (−111, −211, −332, −411, −421, −511, and −521) (>95% purity tested by SDS-PAGE, BioLamina) were added. Bound laminin was detected with rabbit anti-human laminin γ1 chain antibody (1:1000 dilution, Assay biotech) or rabbit anti-human laminin α3 chain antibody (1:1000 dilution, Assay biotech). After incubation with biotinylated anti-rabbit antibody for 60 min at room temperature (RT), HRP conjugated streptavidin (Jackson ImmunoResearch) was added. After 60 min of incubation at RT, 50 μL TMB substrate (Sigma-Aldrich) was added. The reactions were stopped by adding 25 μL of 2N H2SO4. Subsequently, the absorbance at 450 nm was measured with a reference of 570 nm."}, "CXCL-11": {"target": "T7, CXCL-11 (Homo sapiens, UniProt O14625)", "T7 construct": "All growth factors (GFs) and chemokines were purchased in their mature forms; purchased PeproTech; host or cells: Escherichia coli", "T7 sequence (O14625 22-94)": "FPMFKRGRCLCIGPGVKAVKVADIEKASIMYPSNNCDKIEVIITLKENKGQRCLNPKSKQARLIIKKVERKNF", "test": "Laminin binding to recombinant GFs (ELISA)", "settings": "ELISA A450 nm; signals greater than 0.1 = binding", "procedure": "as §4"}, "GF binding to laminin": {"system": "GF binding to laminin", "test": "Inhibition of laminin-GF binding by heparin (ELISA)", "settings": "heparin added in excess (10 μM); VEGF-A165, PlGF-2 or FGF-2", "procedure": "ELISA plates (med-binding) were coated with 10 μg/mL laminin isoforms (−111, −211, −221, −411, −421, −511, and −521) in PBS for 2 hrs at 37° C. Then, wells were blocked with 2% BSA-containing PBS-T and further incubated with 1 μg/mL each of VEGF-A165, PlGF-2, or FGF-2 for 60 min at RT with 10 μM heparin. Next, the wells were incubated with biotinylated anti-VEGF, anti-PlGF, or anti-FGF-2 antibodies (R&D Systems). The antibodies were detected by streptavidin-HRP (R&D Systems)."}, "vWF binding to the GFs": {"target": "vWF binding to the GFs (Homo sapiens, UniProt P04275)", "sequence (P04275 764-2813 limits assumed)": "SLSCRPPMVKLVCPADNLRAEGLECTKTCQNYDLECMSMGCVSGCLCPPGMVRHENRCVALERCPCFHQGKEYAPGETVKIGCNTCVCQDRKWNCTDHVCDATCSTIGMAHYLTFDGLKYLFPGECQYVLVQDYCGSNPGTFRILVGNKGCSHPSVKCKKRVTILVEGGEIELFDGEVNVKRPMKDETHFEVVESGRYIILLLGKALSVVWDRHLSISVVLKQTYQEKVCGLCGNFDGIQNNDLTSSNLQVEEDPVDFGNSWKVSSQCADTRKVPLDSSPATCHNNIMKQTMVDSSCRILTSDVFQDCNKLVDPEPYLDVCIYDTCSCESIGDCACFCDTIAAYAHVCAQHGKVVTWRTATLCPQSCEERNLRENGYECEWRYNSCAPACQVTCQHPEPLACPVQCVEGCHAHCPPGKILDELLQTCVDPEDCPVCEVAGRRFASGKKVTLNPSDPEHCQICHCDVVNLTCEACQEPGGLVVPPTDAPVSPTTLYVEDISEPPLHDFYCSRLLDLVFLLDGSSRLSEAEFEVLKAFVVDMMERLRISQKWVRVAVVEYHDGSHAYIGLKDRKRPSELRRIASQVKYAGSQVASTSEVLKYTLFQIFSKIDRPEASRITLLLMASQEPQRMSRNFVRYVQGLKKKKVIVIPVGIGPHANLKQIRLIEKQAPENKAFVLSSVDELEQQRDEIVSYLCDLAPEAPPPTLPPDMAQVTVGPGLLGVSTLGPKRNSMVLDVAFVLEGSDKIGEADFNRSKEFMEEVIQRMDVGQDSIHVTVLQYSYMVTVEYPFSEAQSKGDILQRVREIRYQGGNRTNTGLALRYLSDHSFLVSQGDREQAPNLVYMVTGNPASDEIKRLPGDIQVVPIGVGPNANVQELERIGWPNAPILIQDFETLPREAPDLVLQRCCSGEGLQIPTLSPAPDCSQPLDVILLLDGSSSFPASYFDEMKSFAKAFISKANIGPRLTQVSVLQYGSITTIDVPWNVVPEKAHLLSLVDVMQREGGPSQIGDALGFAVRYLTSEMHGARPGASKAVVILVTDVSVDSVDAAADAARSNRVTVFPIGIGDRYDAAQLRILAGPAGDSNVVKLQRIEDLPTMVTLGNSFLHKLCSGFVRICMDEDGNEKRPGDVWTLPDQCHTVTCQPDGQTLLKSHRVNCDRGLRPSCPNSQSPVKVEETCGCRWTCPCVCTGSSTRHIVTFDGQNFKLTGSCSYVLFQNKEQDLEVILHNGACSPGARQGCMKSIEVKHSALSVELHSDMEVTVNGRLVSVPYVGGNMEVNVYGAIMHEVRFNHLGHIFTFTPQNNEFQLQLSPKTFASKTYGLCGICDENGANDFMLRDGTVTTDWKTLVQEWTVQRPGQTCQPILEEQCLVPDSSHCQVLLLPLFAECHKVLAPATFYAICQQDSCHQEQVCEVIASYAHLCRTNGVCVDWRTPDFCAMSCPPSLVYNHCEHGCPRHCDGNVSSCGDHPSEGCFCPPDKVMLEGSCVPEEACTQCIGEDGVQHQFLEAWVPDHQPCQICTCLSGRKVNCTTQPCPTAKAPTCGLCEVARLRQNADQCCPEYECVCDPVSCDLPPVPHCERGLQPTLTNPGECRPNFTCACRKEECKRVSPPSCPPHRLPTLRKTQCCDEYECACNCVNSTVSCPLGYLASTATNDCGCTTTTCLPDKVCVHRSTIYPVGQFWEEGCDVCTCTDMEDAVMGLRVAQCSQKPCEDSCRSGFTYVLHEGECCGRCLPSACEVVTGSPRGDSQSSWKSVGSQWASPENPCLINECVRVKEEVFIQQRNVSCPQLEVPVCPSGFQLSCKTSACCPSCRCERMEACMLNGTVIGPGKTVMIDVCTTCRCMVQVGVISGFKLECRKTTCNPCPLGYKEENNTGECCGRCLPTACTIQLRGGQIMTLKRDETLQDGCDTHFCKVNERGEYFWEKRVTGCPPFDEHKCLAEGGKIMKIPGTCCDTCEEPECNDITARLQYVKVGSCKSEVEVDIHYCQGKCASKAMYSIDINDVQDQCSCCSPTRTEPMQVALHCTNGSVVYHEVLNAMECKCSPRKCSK", "test": "Inhibition of vWF-GF binding by heparin (ELISA)", "settings": "excess (10 μM) heparin; VEGF-A165, PlGF-2 or FGF-2", "procedure": "ELISA plates (med-binding) were coated with 10 μg/mL vWF. Then, wells were blocked with 2% BSA-containing PBS-T and further incubated with 1 μg/mL each of VEGF-A, PlGF-2, or FGF-2 for 60 min at room temperature (RT) with 10 μM heparin. Next, the wells were incubated with biotinylated anti-VEGF-A, anti-PlGF, or anti-FGF-2 antibodies (R & D Systems). The antibodies were detected by streptavidin-HRP (R & D Systems). Color development and the absorbance measurement were done as described above."}}, "note": "No end group written: not given here.", "data": [{"substance": "NQEQVSPLRLVFALGTDGKKLRIKSKEKCNDGK [α2PI1-8-α33043-3067]", "values": [{"measurement": "amount of VEGF-A165 remaining in the wounds", "setting": "[1]", "value": "significantly enhanced"}]}, {"substance": "laminin-521: recombinant human full-length laminin isoform -521 (BioLamina)", "values": [{"measurement": "Kd", "setting": "VEGF-A165 [2]", "value": 5.8, "unit": "nM"}, {"measurement": "Kd", "setting": "PDGF-BB [3]", "value": 24.2, "unit": "nM"}, {"measurement": "Kd", "setting": "PlGF-2 [4]", "value": 12.9, "unit": "nM"}]}, {"substance": "recombinant A1 domain: recombinant human vWF A1 domain (U-Protein Express)", "values": [{"measurement": "binding to FGF-2", "setting": "FGF-2", "value": "strong binding"}, {"measurement": "binding to PlGF-2", "setting": "PlGF-2 [5]", "value": "strong binding"}, {"measurement": "binding to CXCL-12γ", "setting": "CXCL-12γ", "value": "strong binding"}, {"measurement": "binding to VEGF-A165", "setting": "VEGF-A165 [6]", "value": "strong binding"}, {"measurement": "binding to PDGF-BB", "setting": "PDGF-BB [7]", "value": "strong binding"}, {"measurement": "binding to VEGF-A165", "setting": "VEGF-A165 [8]", "value": "bound"}, {"measurement": "binding to VEGF-A145", "setting": "VEGF-A145", "value": "bound"}]}, {"substance": "laminin-332: recombinant human full-length laminin isoform -332 (BioLamina)", "values": [{"measurement": "binding of laminin to CXCL-12a", "setting": "CXCL-12α", "value": "bound weakly"}, {"measurement": "binding of laminin to CXCL-11", "setting": "CXCL-11", "value": "bound weakly"}]}, {"substance": "heparin", "values": [{"measurement": "inhibition of GF binding to laminin", "setting": "GF binding to laminin", "value": "inhibited GF binding to laminin"}, {"measurement": "inhibition of vWF binding to the GFs", "setting": "vWF binding to the GFs", "value": "inhibited vWF binding to the GFs"}]}]}
